# In US11325966:
# What was measured:
# Assay in all cases: cell-based or functional assay
# [1] = target: HIV-1 YU2 Env N276D, on pseudovirus (HIV-1) (UniProt P35961)
# [2] = target: HIV-1 YU2 Env N160K, on pseudovirus (HIV-1) (UniProt P35961)
# [3] = target: HIV-1 Env of pseudovirus ZM247v1 (Rev-) (HIV-1)
# [4] = target: HIV-1 envelope (Env) of pseudovirus T257-31 (HIV-1)
# [5] = target: HIV-1 envelope (Env) of pseudovirus Q842.d12 (HIV-1)
# [6] = target: HIV-1 envelope (Env) of pseudovirus CNE30 (HIV-1)
# [7] = target: HIV-1 envelope (Env) of pseudovirus CNE58 (HIV-1)
# [8] = target: HIV-1 envelope (Env) of pseudovirus Ce0682_E4 (HIV-1)
# [9] = target: HIV-1 envelope (Env) of pseudovirus R2184.c04 (HIV-1)
# [10] = target: HIV-1 envelope (Env) of pseudovirus 62357_14_D3_4589 (HIV-1)
# [11] = target: HIV-1 envelope (Env) of pseudovirus Ce1176_A3 (HIV-1)
# [12] = target: HIV-1 envelope (Env) of pseudovirus BG505/T332N (HIV-1)
# [13] = target: HIV-1 envelope (Env) of pseudovirus 1056_10_TA11_1826 (HIV-1)
# [14] = target: HIV-1 envelope (Env) of pseudovirus ZM135M.PL10a (HIV-1)
# [15] = target: HIV-1 envelope (Env) of pseudovirus CAP45.2.00.G3 (HIV-1)
# [16] = target: HIV-1 envelope (Env) of pseudovirus 1006_11_C3_1601 (HIV-1)
# [17] = target: HIV-1 envelope (Env) of pseudovirus C3347.c11 (HIV-1)
# [18] = target: HIV-1 envelope (Env) of pseudovirus Ce1172_H1 (HIV-1)
# [19] = target: HIV-1 envelope (Env) of pseudovirus 6480.v4.c25 (HIV-1)
# [20] = target: HIV-1 envelope (Env) of pseudovirus REJO4541.67 (HIV-1)
# [21] = target: HIV-1 envelope (Env) of pseudovirus ZM233M.PB6 (HIV-1)
# [22] = target: HIV-1 envelope (Env) of pseudovirus C1080.c03 (HIV-1)
# [23] = target: HIV-1 envelope (Env) of pseudovirus YU2_N332K (HIV-1) (UniProt P35961)
# [24] = target: HIV-1 envelope (Env) of pseudovirus 89-F1_2_25 (HIV-1)
# [25] = target: HIV-1 envelope (Env) of pseudovirus SC422661.8 (HIV-1)
# [26] = target: HIV-1 envelope (Env) of pseudovirus HIV-16845-2.22 (HIV-1)
# [27] = target: HIV-1 envelope (Env) of pseudovirus MS208.A1 (HIV-1)
# [28] = target: HIV-1 envelope (Env) of pseudovirus SC05_8C11_2344 (HIV-1)
# [29] = target: HIV-1 envelope (Env) of pseudovirus 246F C1G (HIV-1)
# [30] = target: HIV-1 envelope (Env) of pseudovirus X2088_c9 (HIV-1)
# [31] = target: HIV-1 envelope (Env) of pseudovirus BJOX025000.01.1 (HIV-1)
# [32] = target: HIV-1 envelope (Env) of pseudovirus ZM53M.PB12 (HIV-1)
# [33] = target: HIV-1 envelope (Env) of pseudovirus X1632_S2_B10 (HIV-1)
# [34] = target: HIV-1 envelope (Env) of pseudovirus Ce0393_C3 (HIV-1)
# [35] = target: HIV-1 envelope (Env) of pseudovirus 1054_07_TC4_1499 (HIV-1)
# [36] = target: HIV-1 Env of pseudovirus C3347.H1 (HIV-1)
# [37] = target: JR-CSF N295A (HIV-1) (UniProt P20871)
# [38] = target: JR-CSF N362A (HIV-1) (UniProt P20871)
substance,measurement,setting,value
BG18 IgG (354BG18) (antibody),IC50 in TZM-bl assay,[1],0.012 µg/mL
same,IC80 in TZM-bl assay,[1],0.036 µg/mL
same,IC50 in TZM-bl assay,[2],0.028 µg/mL
same,IC80 in TZM-bl assay,[2],0.15 µg/mL
same,IC50 in TZM-bl assay,[3],1.45 µg/mL
same,IC80 in TZM-bl assay,[3],8.72 µg/mL
BG1 (antibody),IC50 in TZM-bl assay,[4],> 30 µg/mL
same,IC80 in TZM-bl assay,[4],> 30 µg/mL
same,IC50 in TZM-bl assay,[5],1.4 µg/mL
same,IC80 in TZM-bl assay,[5],4.3 µg/mL
same,IC50 in TZM-bl assay,[6],> 30 µg/mL
same,IC80 in TZM-bl assay,[6],> 30 µg/mL
same,IC50 in TZM-bl assay,[7],> 30 µg/mL
same,IC80 in TZM-bl assay,[7],> 30 µg/mL
same,IC50 in TZM-bl assay,[8],> 30 µg/mL
same,IC80 in TZM-bl assay,[8],> 30 µg/mL
same,IC50 in TZM-bl assay,[9],> 30 µg/mL
same,IC80 in TZM-bl assay,[9],> 30 µg/mL
same,IC50 in TZM-bl assay,[10],0.638 µg/mL
same,IC80 in TZM-bl assay,[10],2.89 µg/mL
same,IC50 in TZM-bl assay,[11],0.031 µg/mL
same,IC80 in TZM-bl assay,[11],0.165 µg/mL
same,IC50 in TZM-bl assay,[12],0.034 µg/mL
same,IC80 in TZM-bl assay,[12],0.125 µg/mL
same,IC50 in TZM-bl assay,[13],5.43 µg/mL
same,IC80 in TZM-bl assay,[13],29.9 µg/mL
same,IC50 in TZM-bl assay,[14],> 30 µg/mL
same,IC80 in TZM-bl assay,[14],> 30 µg/mL
same,IC50 in TZM-bl assay,[15],0.149 µg/mL
same,IC80 in TZM-bl assay,[15],0.383 µg/mL
same,IC50 in TZM-bl assay,[16],> 30 µg/mL
same,IC80 in TZM-bl assay,[16],> 30 µg/mL
same,IC50 in TZM-bl assay,[17],> 30 µg/mL
same,IC80 in TZM-bl assay,[17],> 30 µg/mL
same,IC50 in TZM-bl assay,[18],> 30 µg/mL
same,IC80 in TZM-bl assay,[18],> 30 µg/mL
same,IC50 in TZM-bl assay,[19],> 30 µg/mL
same,IC80 in TZM-bl assay,[19],> 30 µg/mL
same,IC50 in TZM-bl assay,[20],0.342 µg/mL
same,IC80 in TZM-bl assay,[20],1.66 µg/mL
same,IC50 in TZM-bl assay,[21],> 30 µg/mL
same,IC80 in TZM-bl assay,[21],> 30 µg/mL
same,IC50 in TZM-bl assay,[22],2 ng/mL
same,IC80 in TZM-bl assay,[22],5 ng/mL
same,IC50 in TZM-bl assay,[23],19.4 µg/mL
same,IC80 in TZM-bl assay,[23],> 30 µg/mL
same,IC50 in TZM-bl assay,[24],> 30 µg/mL
same,IC80 in TZM-bl assay,[24],> 30 µg/mL
same,IC50 in TZM-bl assay,[25],> 30 µg/mL
same,IC80 in TZM-bl assay,[25],> 30 µg/mL
same,IC50 in TZM-bl assay,[26],> 30 µg/mL
same,IC80 in TZM-bl assay,[26],> 30 µg/mL
same,IC50 in TZM-bl assay,[27],1.48 µg/mL
same,IC80 in TZM-bl assay,[27],6.54 µg/mL
same,IC50 in TZM-bl assay,[28],> 30 µg/mL
same,IC80 in TZM-bl assay,[28],> 30 µg/mL
same,IC50 in TZM-bl assay,[29],> 30 µg/mL
same,IC80 in TZM-bl assay,[29],> 30 µg/mL
same,IC50 in TZM-bl assay,[30],> 30 µg/mL
same,IC80 in TZM-bl assay,[30],> 30 µg/mL
same,IC50 in TZM-bl assay,[31],> 30 µg/mL
same,IC80 in TZM-bl assay,[31],> 30 µg/mL
same,IC50 in TZM-bl assay,[32],> 30 µg/mL
same,IC80 in TZM-bl assay,[32],> 30 µg/mL
same,IC50 in TZM-bl assay,[33],0.079 µg/mL
same,IC80 in TZM-bl assay,[33],0.25 µg/mL
same,IC50 in TZM-bl assay,[34],> 30 µg/mL
same,IC80 in TZM-bl assay,[34],> 30 µg/mL
same,IC50 in TZM-bl assay,[35],> 30 µg/mL
same,IC80 in TZM-bl assay,[35],> 30 µg/mL
PGT121 (antibody),IC50 in TZM-bl assay,[36],> 10 µg/mL
same,IC80 in TZM-bl assay,[36],> 10 µg/mL
354BG8 (antibody),IC50 in TZM-bl assay,[37],6 ng/mL
same,IC50 in TZM-bl assay,[38],8 ng/mL
